Laboratory results reported in patent publication US20220378931A1 (Eli Lilly, published 2022).

B1: INS Analog 2 (other)
chain: FVDQHLCGSHLVEALYLVCGERGFFYTPKTGGGGGGGIVEQCCTSICSLYQLENYCGPGPAPGPAPGPAPGPAPGPAPGPAPGPAPGPAEVQLLESGGGLVQPGGSLRLSCAASGRTVSSTAVAWFRQAPGKEREFVAGIGGSVDITYYADSVKGRFTISRDNSKNTLYLQMNSLRPEDTAVYYCAVRPGRPLITSRDANLYDYWGQGTLVTVSS
notes: single-chain insulin B-L2-A-L1-VHH fusion; also called Ex. 2
B2: INS Analog 6 (other)
chain: FVNQHLCGSHLVEALYLVCGERGFHYTPKTGGGGGGGIVEQCCTSICSLYQLENYCGPGPAPGPAPGPAPGPAPGPAPGPAPGPAPGPAEVQLLESGGGLVQPGGSLRLSCAASGRTVSSTAVAWFRQAPGKEREFVAGIGGSVDITYYADSVKGRFTISRDNSKNTLYLQMNSLRPEDTAVYYCAVRPGRPLITSRDANLYDYWGQGTLVTVSS
notes: single-chain insulin B-L2-A-L1-VHH fusion; also called Ex. 6
B3: INS Analog 4 (other)
chain: FVNQHLCGSHLVEALELVCGERGFFYTPKTGGGGGGGIVEQCCTSICSLYQLENYCGPGPAPGPAPGPAPGPAPGPAPGPAPGPAPGPAEVQLLESGGGLVQPGGSLRLSCAASGRTVSSTAVAWFRQAPGKEREFVAGIGGSVDITYYADSVKGRFTISRDNSKNTLYLQMNSLRPEDTAVYYCAVRPGRPLITSRDANLYDYWGQGTLVTVSS
notes: single-chain insulin B-L2-A-L1-VHH fusion; also called Ex. 4
B4: INS Analog 3 (other)
chain: FVNQHLCGAHLVEALYLVCGERGFFYTPKTGGGGGGGIVEQCCTSICSLYQLENYCGPGPAPGPAPGPAPGPAPGPAPGPAPGPAPGPAEVQLLESGGGLVQPGGSLRLSCAASGRTVSSTAVAWFRQAPGKEREFVAGIGGSVDITYYADSVKGRFTISRDNSKNTLYLQMNSLRPEDTAVYYCAVRPGRPLITSRDANLYDYWGQGTLVTVSS
notes: single-chain insulin B-L2-A-L1-VHH fusion; also called Ex. 3
B5: INS Analog 5 (other)
chain: FVNQHLCGSHLVEALHLVCGERGFFYTPKTGGGGGGGIVEQCCTSICSLYQLENYCGPGPAPGPAPGPAPGPAPGPAPGPAPGPAPGPAEVQLLESGGGLVQPGGSLRLSCAASGRTVSSTAVAWFRQAPGKEREFVAGIGGSVDITYYADSVKGRFTISRDNSKNTLYLQMNSLRPEDTAVYYCAVRPGRPLITSRDANLYDYWGQGTLVTVSS
notes: single-chain insulin B-L2-A-L1-VHH fusion; also called Ex. 5
B6: INS Analog 19 (other)
chain: FVSQHLCGSHLVEALYLVCGERGFFYTPKTGGGGGGGIVEQCCTSICSLYQLENYCGGGGGQGGGGQGGGGQGGGGQGGGGQEVQLLESGGGLVQPGGSLRLSCAASGRYIDETAVAWFRQAPGKEREFVAGIGGGVDITYYADSVKGRFTISRDNSKNTLYLQMNSLRPEDTAVYYCAARPGRPLITSKVADLYPYWGQGTLVTVSSPP
notes: single-chain insulin B-L2-A-L1-VHH fusion; also called Ex. 19
B7: INS Analog 21 (other)
chain: FVSQHLCGSHLVEALHLVCGERGFHYTPKTGGGGGGGIVEQCCHSICSLYQLENYCGGGGGQGGGGQGGGGQGGGGQGGGGQEVQLLESGGGLVQPGGSLRLSCAASGRYIDETAVAWFRQAPGKEREFVAGIGGGVDITYYADSVKGRFTISRDNSKNTLYLQMNSLRPEDTAVYYCAARPGRPLITSKVADLYPYWGQGTLVTVSSPP
notes: single-chain insulin B-L2-A-L1-VHH fusion; also called Ex. 21
B8: INS Analog 17 (other)
chain: FVSQHLCGSHLVEALRLVCGERGFFYTPKTGGGGGGGIVEQCCHSICSLYQLENYCGPGPAPGPAPGPAPGPAPGPAPGPAPGPAPGPAEVQLLESGGGLVQPGGSLRLSCAASGRYIDETAVAWFRQAPGKEREFVAGIGGGVDITYYADSVKGRFTISRDNSKNTLYLQMNSLRPEDTAVYYCAARPGRPLITSKVADLYPYWGQGTLVTVSSPP
notes: single-chain insulin B-L2-A-L1-VHH fusion; also called Ex. 17
B9: INS Analog 16 (other)
chain: FVSQHLCGSHLVEALWLVCGERGFFYTPKTGGGGGGGIVEQCCTSICSLYQLENYCGPGPAPGPAPGPAPGPAPGPAPGPAPGPAPGPAEVQLLESGGGLVQPGGSLRLSCAASGRYIDETAVAWFRQAPGKEREFVAGIGGGVDITYYADSVKGRFTISRDNSKNTLYLQMNSLRPEDTAVYYCAARPGRPLITSKVADLYPYWGQGTLVTVSSPP
notes: single-chain insulin B-L2-A-L1-VHH fusion; also called Ex. 16
B10: INS Analog 10 (other)
chain: FVSQHLCGSHLVEALHLVCGERGFFYTPKTGGGGGGGIVEQCCTSICSLYQLENYCGPGPAPGPAPGPAPGPAPGPAPGPAPGPAPGPAEVQLLESGGGLVQPGGSLRLSCAASGRYIDETAVAWFRQAPGKEREFVAGIGGGVDITYYADSVKGRFTISRDNSKNTLYLQMNSLRPEDTAVYYCAARPGRPLITSKVADLYPYWGQGTLVTVSSPP
notes: single-chain insulin B-L2-A-L1-VHH fusion; also called Ex. 10
B11: INS Analog 22 (other)
chain: FVSQHLCGSHLVEALHLVCGERGFHYTPKTGGGGGGGIVEQCCHSICSLYQLENYCGPGPQPGPQPGPQPGPQPGPQPGPQPGPQPGPQEVQLLESGGGLVQPGGSLRLSCAASGRYIDETAVAWFRQAPGKEREFVAGIGGGVDITYYADSVKGRFTISRDNSKNTLYLQMNSLRPEDTAVYYCAARPGRPLITSKVADLYPYWGQGTLVTVSSPP
notes: single-chain insulin B-L2-A-L1-VHH fusion; also called Ex. 22
B12: INS Analog 9 (other)
chain: FVSQHLCGSHLVEALYLVCGERGFHYTPKTGGGGGGGIVEQCCHSICSLYQLENYCGPGPAPGPAPGPAPGPAPGPAPGPAPGPAPGPAEVQLLESGGGLVQPGGSLRLSCAASGRYIDETAVAWFRQAPGKEREFVAGIGGGVDITYYADSVKGRFTISRDNSKNTLYLQMNSLRPEDTAVYYCAARPGRPLITSKVADLYPYWGQGTLVTVSSPP
notes: single-chain insulin B-L2-A-L1-VHH fusion; also called Ex. 9
B13: INS Analog 8 (other)
chain: FVSQHLCGSHLVEALYLVCGERGFHYTPKTGGGGGGGIVEQCCTSICSLYQLENYCGPGPAPGPAPGPAPGPAPGPAPGPAPGPAPGPAEVQLLESGGGLVQPGGSLRLSCAASGRYIDETAVAWFRQAPGKEREFVAGIGGGVDITYYADSVKGRFTISRDNSKNTLYLQMNSLRPEDTAVYYCAARPGRPLITSKVADLYPYWGQGTLVTVSSPP
notes: single-chain insulin B-L2-A-L1-VHH fusion; also called Ex. 8
B14: INS Analog 15 (other)
chain: FVSQHLCGSHLVEALFLVCGERGFFYTPKTGGGGGGGIVEQCCTSICSLYQLENYCGPGPAPGPAPGPAPGPAPGPAPGPAPGPAPGPAEVQLLESGGGLVQPGGSLRLSCAASGRYIDETAVAWFRQAPGKEREFVAGIGGGVDITYYADSVKGRFTISRDNSKNTLYLQMNSLRPEDTAVYYCAARPGRPLITSKVADLYPYWGQGTLVTVSSPP
notes: single-chain insulin B-L2-A-L1-VHH fusion; also called Ex. 15
B15: INS Analog 20 (other)
chain: FVSQHLCGSHLVEALYLVCGERGFFYTPKTGGGGGGGIVEQCCTSICSLYQLENYCGPGPQPGPQPGPQPGPQPGPQPGPQPGPQPGPQEVQLLESGGGLVQPGGSLRLSCAASGRYIDETAVAWFRQAPGKEREFVAGIGGGVDITYYADSVKGRFTISRDNSKNTLYLQMNSLRPEDTAVYYCAARPGRPLITSKVADLYPYWGQGTLVTVSSPP
notes: single-chain insulin B-L2-A-L1-VHH fusion; also called Ex. 20

Key:
[1] = target: T1, human insulin receptor isoform B with C-terminal C9 tag (human, UniProt P06213 28-1382); experiment: 125I-insulin competition SPA, hIR-B membranes, 0.1% HSA
T1 construct: membranes of stably transfected HEK293 cells; also called hIR-B; human IR-B
Description: (§1) The assays are performed with a SPA method using polyvinyltoluene (PVT) wheat germ agglutinin-coupled SPA beads (Perkin Elmer). Assay buffer contains 50 mM Tris-HCl, pH 7.5, 150 mM NaCl and either A) 0.1% w/v fatty-acid free BSA; B) 0.1% w/v fatty-acid free human serum albumin (HSA); C) 0.1% w/v rat serum albumin (RSA); or D) 0.001% Nonidet P-40 Substitute (NP-40, Roche Diagnostics). Ten-point concentration response curves using three-fold serial dilutions of test samples or controls are prepared in Assay Buffer using a Freedom/Evo robot (Tecan).
(§2) Percent specific inhibition (y-axis) is plotted versus the log concentration of compound (x-axis). […] Reported Ki values are shown as the geometric mean with the standard error (Delta Method Standard Error) and the number of independent replicate determinations used to calculate the geometric mean indicated by n.

[2] = target: T2, human insulin receptor isoform A with C-terminal C9 tag (human, UniProt P06213 28-1382); experiment: 125I-insulin competition SPA, hIR-A membranes, 0.1% HSA
T2 construct: membranes of stably transfected HEK293 cells; also called hIR-A; human IR-A
Description: as §1, §2

[3] = target: T2, human insulin receptor isoform A with …; experiment: 125I-insulin competition SPA, hIR-A membranes, 0.001% NP-40
Description: as §1, §2

[4] = target: T1, human insulin receptor isoform B with …; experiment: 125I-insulin competition SPA, hIR-B membranes, 0.001% NP-40
Description: as §1, §2

[5] = target: T1, human insulin receptor isoform B with …; experiment: 125I-insulin competition SPA, hIR-B membranes, 0.1% BSA
Description: as §1, §2

[6] = target: T2, human insulin receptor isoform A with …; experiment: 125I-insulin competition SPA, hIR-A membranes, 0.1% BSA
Description: as §1, §2

Binder	Ki [1]	Ki [2]	Ki [3]	Ki [4]	Ki [5]	Ki [6]
B1	29.7 nM	31.9 nM	45.1 nM	39.2 nM	56 nM	31.4 nM
B2	–	–	–	–	–	65.5 nM
B3	–	–	–	–	–	591 nM
B4	–	–	–	–	–	45.2 nM
B5	–	–	–	–	–	57 nM
B6	–	–	18.5 nM	–	–	41.8 nM
B7	–	–	8.3 nM	–	–	28 nM
B8	102 nM	31.3 nM	31.3 nM	44.3 nM	110 nM	81.8 nM
B9	–	–	43.1 nM	–	–	46 nM
B10	–	–	20.1 nM	–	–	146 nM
B11	–	–	17.1 nM	–	–	59.7 nM
B12	–	–	6.67 nM	–	–	11.7 nM
B13	–	–	47.3 nM	–	–	139 nM
B14	–	–	13.1 nM	–	–	39.2 nM
B15	–	–	18.5 nM	–	–	51.3 nM
